assay: soluble on expression in E. coli; label from the status in PepcDB or PDB records

Sequence | soluble on expression in E. coli
MSIEVGNKLKGKVTGIKKFGAFVELPEGKSGLVHISEVADNYVENVEEHLSVGDEVDVKVLSIADDGKISLSIKKAKDRPRRQHTSKPSHQKPVQKAEDFEKKLSNFLKDSEDKLTSIKRQTESRRGGKGSRR | not soluble
MSILVKNNIHWVGQRDWEVRDFHGTEYKTLRGSSYNSYLIREEKNVLIDTVDHKFSREFVQNLRSEIDLADIDYIIINHAEEDHAGALTELMAQIPDTPIYCTANAIDSINGHHHHPEWNFKVVKTGDTLDIGNGKQLIFVETPMLHWPDSMMTYMTGDAVLFSNDAFGQHYCDERLFNDEVDQTELFEQCQRYYANILTPFSRLVTPKITEILGFNLPVDMIATSHGVVWRDNPTQIVELYLKWATDYQEDRITIFYDTMSNNTRMMADAIAQGINEVDPNVAVKIFNVARSDKNEILTNVFRSKGVLVGTSTMNNVMMPKIAGLVEEMTGLRFRNKRASAFGSHGWSGGAVDRLSTRLQDAGFEMSLSLKAKWRPDLDALELCRQHGRDIARQWALAPLPETTQQIAPVEETITCTAADLGPKMQCSVCQWIYDPALGEPLQDVAPGTPWNDVPDNFLCPECSLGKDVFDVLATEAK | not soluble
MSINGISGASPLVALQGPSASQRPEPVSSTDRAQAPAFSERLGSALEGLAKSQTEAAEKASAFERGEGGNLAEVMVSQQVSSLGFQLALNVRNKALGAYRDIMNMPV | not soluble
MSINIEQAIIHEISQDSQGQLRCRLRPQPLLNGQAVEMMLEELHQTYTSKSGKGFGYFGIHGDDGEANPAFANALKEYRAGDLGFVEFTGQASKLLQEELAKYDFSQGGFLLMSCYTSMASDYLFVALLSAKSSMTVLDDMELSQNNHLDLNNIQLAARIDLTELQADKDSRKYISFIRGRAGRKVADFFLDFMGCVEGVNTKAQNKTLMNAVEDFVASSDLTKEERQQCRNKVFEYCSERFDEGADIEIKDLADELADQGMESFYDFARGGSYELDEEFPADKSTLRQLKKFSGTGGGVTISFDGGHLGQRVIYDPISDTILIKGVPANLKDQLDRRLKGE | soluble
MSINTSGKITSATERADSADFRTIIRNKIPLMDVRAPVEFGKGAFDLSINYPLMNNDERADVGICYKQNGQEAAIKLGNALVSGQSKARRLTQWQTFARENPQGYLYCFRGGLRSQTVQRWLKESGINYPLITGGYKALRQFLLNELEQLALHPLTILAGNTGSGKTPFLAHCANSLDLEGAAGHRGSSFGSFVTPQSNQINFENKLAEQYIRGDFSLEQRLVLEDEGRLIGSVHLPESLRNAMTLAPLVVIEESLEYRLEQIYQEYIIKMTAQYQAAYGVEQGFTAFSEYLEHGLFKVRKRLGTQRYGQLKEIQSTALTQQNKGQPQYHLDWLKPLLSEYYDPMYQYQLGLKSDRVIFRGNNSECLAFLRD | not soluble
MSIPITVKTVADLIIGEKGIICGFTDEETSLKLLEMGCLPGCEIELDRKAPLGDPICINVCGYTLSMRLEEASTILLSLEHHHHHH | not soluble
MSISTIRRQVKNVAYNFSDAQVKVREATSNDPWGPSTALMSEIADLTHNPMAFTEIMSIVWKRLNDSGKNWRHVYKSLVLLDFLIKCGHEKVAQQCRENVFTIETLKDFQHVEDNRDQGLNIREKAKQITSLLSDDERLKNERTRFILTRNKFKQNNPGPVGAESRRSNRHHVTDASLDPEYEDARPSTATEEEMQLQIALALSREECEKADEMRKSDDARLQMALEESQKLQDADRLATTKQGTVSSGQLTQSALDDLLSLGVGELVSGNNDQPSSSSAWGMNDPWGAPQASASLNTNDQMFANSMSNNDPWATSTVAQPVAATAPNSDPFASWDAPAPAATTPSTMPTSSSFDLLGGDLLSPTNSLSANINTNNSTNGTRKTPENFLGENSNLVNLDNLLGSGTPSTTGGNPFLTGAAPANANPFAAQQRKSPTLNEMRAAQGQAPPIPSMAPRGTLPQANPFANPF | not soluble
MSITHLMRQQVEELFKRFLEKTGLSEEATVYAVFIPKEEEVDEESVDVFEQRVNPKDAESVENFVSRLTKVALENDVKELKLYALVLDRDGETLIIAREENPEADEVIKELIERMKEEV | not soluble
MSIWQRVSFTHRFSQLPSAFYTLVEPQPLDNTRWVAWNGEFAQQFGLPAAQNDELLAVFSGQSEFEPFRPLAMKYAGHQFGVYNPDLGDGRGLLLAEIEHQNGTWFDIHLKGAGLTPYSRMGDGRAVLRSTIREYLCSEAMAGLGIPTTRALGMVVSDTPVYREKTEFGAMLIRMAETHVRFGHFEHLFYTNQLAEQKLLADKVIEWHFADCASAEKPYAAMFGEIVQKTADMIAYWQAYGFAHGVMNTDNMSILGQTFDYGPFGFLDDYEPGYICNHSDYQGRYAFEQQPRIALWNLSALAHALSPLVEREDLEQALSQFEGRLSQQFSRLMRSKLGLKTKIAEDGRLFESMFELLNQNHTDYTRFFRALSNLDKQPAQEVIDLFIDREAAQAWLDLYLARCELEVDEIGEPISAEQRSEQMRQTNPKYILRNYLAQLAIDKAEEGDFSEVHRLAEILRHPYDSQPEFEAYAKLPPEWGKKMEISCSSLEHHHHHH | not soluble
MSKAEFQKFHDEMKALKNAGKHDEFAKKFAAKDAVFIGPLHDPCTADEAAKLAQSDKMAALVKADFDVKIDEVTQIGDVVVERCSISAKLPTGDKNGWSLTVWVKEGGAWKIRNSCITFKAPIPQ | not soluble
MSKAIKQNLADSKKMSAELFCLTYGAMVTEMLKDYEDPKDVTIQLDKMGFNMGTRLADDFLAKNANVPRCVDTRQIADVLCRNAIPCYLGISATASSWTSGDREFTITLEANPLTELVQVPAHLVSAGLSYSQLIAGAIRGALEAVHFKVYASATDTGANTEIRIRFDQVLKDSLPAGEDD | not soluble
MSKATTPGDQPKVSEMDFYQLLGVEKMASEAEIKSAYRKLALKYHPDRNPNDAHAQEEFKKVSIAYSVLSDPNKRRQYDVSGPSENQLDFEGFDVSEMGGVGRVFGALFSKLGVPIPTQIVPKVLAQARHICMGQECDVQARQLPPGETVTSSVSKQHAHFYEINIQEEHRKNGVAIICKSSSSKFKLVLFDKEGGVRMIQESGKRGKAGTQADMFFVPYNVANIQEFNAMKYHLEDKETPLAFHYLDSFEMQTATLLETRKHYIAVYGDNWISDVKYSITFLPVEPSAVEQLNEIQDTEKSISIIKKEMLDFQREFTEAKRKYDEAVAKLKVQDDTILKALAHREELYNEVLQKSQEPYNKKVSPSKSSGGLLGWFK | not soluble
MSKDSNKIIEQSREIGISIIMPLYNVEEVILETLESIHEQTFDSYEVLLIDDGSTDKTIEIVTEYIKDKPRFKLYTQPNGGPASARNHGLRLAIGMYICFVDSDDILPNYSLQLMYDGAISTGAKLITGATKRFNSEGEWFIPMHIQYNIAKPGMKTLLKNPELFYSIGPCAKLYHHSLIDGVFFPENIRYGEDQPFVLHALLQAKDIYTVEKVVYYYRLRDGESQSLTQSVDKDPIRILKSVFQIFDYGEEELKKNNTDYEVALKYYQRVSSVELWGALRAAIESKKSENQKIAFTMTLDWLKTKSDDFLNIIPSFRYFLLFSSIERVRYITKDNKENYRNLIGYLWSRQGEEAKIAFRKTYPIPMKAALQIIENNNWRDARKISFKFIVRRKFKAPILIRKISRGIIFRIATLMPRKKNQVILATERSTTLEGNLLAIYDYMFYNNMPQKVYVFLRKNRNWFEMFQLYYTLGRTKTIVLDDYYNKIYGLKFNKNTHVVQSWHATGAFKKFGFSALEGTDANTEEFETRAHSPYTDVLVSSEGIIPEYMEAFRKQANQIKPIGVPRTDVFFDDEYVNYTKEKYMKMYPQLRDKKILLYAPTFRGGPNERFNYSVVLDIAALKKELGDTHILILKFHPVIKNVSFNVEEDDPFILNLTLNNDINDLMLFSDALITDYSSVIFEFSLMNKPIYFFAYDIDDYLDERGFYFDYKATIPGEVFRDTPSLIEAVKSGLYNYDELEIFKKKFVGSLDGNSTKRFVETYIGKANEKVKDILEHHHHHH | soluble
MSKEIDISIRYLENVLSTNNSTLILSSTAAVLEAVSKNCDTTNGELKRSIISLLRIIDKKCFLNQDVDVNQIKFSLQEVGKLSTKYPKSHQKPGNEVKVKTNAEFREIETVPNPDEENIDNLLNQLNLKKVPSFSPAFPDIGDDSDDENGITTKQKEEERAEQHGQKVCEEEVVKLPDGREIRMKKTKTVNVKQTTKHVTISTKSANMPEVSRTFMNARRGFDEDEEEENTNFGSSNMRGGDPFERFRSMLKDKDEKIEAIEGESSSDPGTPGSSSKSKTIERTSEVSQKVSEKKEKDGRLLAEHEASKLDKSNLFAKQVDTYQGAALIDRKGEGSYEESTLVRSALPQDSQVATPPRMHVVEYMMMFGDDKKNNENEYLKGTTISSYVRLNNNLTTHEEQFKKKIQFEFSTAGTSSTTIDLDNLSDLLNQTDFNCLRPPNKFLEDTPLIVEQPKAIDWQREPTSAPPEKDLLLEHDGVDYVIFREKEGKVLEVRGGPKDALIVYATQSTHSSLLYQEAFLITFRTFISSLELVNKLIKRYLYMSLADDSQSESIARHTFSVIVRIIDETTQYELDFDLITSVTSFVYRLIHDGNFTYSRILRTRLLDRIKDSFDIQTVLGTNLCKPRKPHDLFDFKSAEIACQLTFIDSQLYHRIESAELLWWAQEQNEKKSKNLVNFTEQFNNLSFWVRTLIITQGTQKERERHMMKFVKIMKHLREMCNFNSYLAILSAIMSTPLARLEWSKNIKDALKEHTAVMDTAQSYKNYRALLQTAKPPCVPYIGIILQDLTFVHAGNPDTIPSDRCHGAKNMINFLKRWNQFAILDSIRKLKKWNYDIKKNDIVVQYFNGFKDCIDEERTWQLSHQIKPSNRKSKTQA | not soluble
MSKELTAKKRAALNRLKTVRGHLDGIVRMLESDAYCVDVMKQISAVQSSLERANRVMLHNHLETCFSTAVLDGHGQAAIEELIDAVKFTPALTGPHARLGGAAVGESATEEPMPDASNM | soluble
MSKFDTSALEAFVRHIPQNYKGPGGVVAVVKDGEVVLQHAWGFADLRTRTPMTLDTRMPICSVSKQFTCAVLLDAVGEPELLDDALEAYLDKFEDERPAVRDLCNNQSGLRDYWALSVLCGADPEGVFLPAQAQSLLRRLKTTHFEPGSHYSYCNGNFRILADLIEAHTGRTLVDILSERIFAPAGMKRAELISDTALFDECTGYEGDTVRGFLPATNRIQWMGDAGICASLNDMIAWEQFIDATRDDESGLYRRLSGPQTFKDGVAAPYGFGLNLHETGGKRLTGHGGALRGWRCQRWHCADERLSTIAMFNFEGGASEVAFKLMNIALGVSSSEVSRVEADSAWFGSWLDDETGLVLSLEDAGHGRMKARFGTSPEMMDVVSANEARSAVTTIRRDGETIELVRASENLRLSMKRVKGEAKHDIIGRYHSDELDADLLLVSEGGAIYGAFEGFLGKSDMYPLYSVGSDVWLLPVQRSMDAPSPGEWKLVFRRDDKGEITGLSVGCWLARGVEYRRVQP | soluble
MSKIDFHTHYLPTSYVEALKRHVPGDPDGWPTPEWTPQLTLNFMRDNDISYSILSLSSPHVNFGDKAETIRLVEAANDDGKSLAQQYPDQLGYLASLPIPYELDAVKTVQQALDQDGALGVTVPTNSRGLYFGSPVLERVYQELDARQAIVALHPNEPAILPKNVDIDLPVPLLGFFMDTTMTFINMLKYHFFEKYPNIKVIIPHAGAFLGIVDDRIAQYAQKVYQVDVYDVMHHVYFDVAGAVLPRQLPTLMSLAQPEHLLYGSDIPYTPLDGSRQLGHALATTDLLTNEQKQAIFYDNAHRLLTELEHHHHHH | soluble
MSKKKQDVSIVRSSAAEYLTFIAAMGDQSQSVEMRYEDENIWLTQKMMASLYDVTVPAINQHLKRIFDDGELLPEAVLKDYLITAADGKQYRTKHYNLQAIISVGFKINNVRAVQFRKWAGQIVKDYTIQGWTMDVERLKKGHLFTDEYFDRQLEYIREIRLSERKFYQKVTDLYATAFDYDKDALTTREFFALVQNKLHWAVHRHTAAELIVSRADAGRTNMGLTHWAAAPQGKIIKSDVSIAKNYLNVQEMEYLERIVSIYLDFAELQAMRKIPMSMQDWARRLDGFLEFNGNEILMGPGKVSQEQAKLHAESEFEQYRIVQDRLFQSDFDRLLLQLESKNKEEGQ | not soluble

Source: the DeepSol protein solubility set
